According to US20250043302A1, “MUTATED HYDROXYPHENYLPYRUVATE DIOXYGENASE POLYPEPTIDE, AND CODING GENE AND USE THEREOF” (BEIJING DABEINONG BIOTECHNOLOGY CO., LTD., priority 2021, published 2025):

Tests used:
Format in all cases: in vivo
[1] = tested on: Arabidopsis thaliana T1 plants; assay: Isoxaflutole tolerance of transgenic Arabidopsis thaliana T1 plants (spray, bleached leaf area grade, damage score); details: Table 11; for Classification and statistics of the grade of pesticide damage Grade 0: number of plants at grade 0; for Classification and statistics of the grade of pesticide damage Grade 1: number of plants at grade 1; for Classification and statistics of the grade of pesticide damage Grade 2: number of plants at grade 2; for Classification and statistics of the grade of pesticide damage Grade 3: number of plants at grade 3; for Scores: pesticide damage score;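 on Scores: Weighted damage index from 0 to 100 where higher means more damage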
Outline: (§1)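 Damage graded 0–3 from the proportion of bleached leaf area 7 days after spraying. Plants were glufosinate-selected T1 lines, 18 days after sowing, plus vector and wild-type controls. Rates: mesotrione 52.5–420, isoxaflutole 35–280, topramezone 25–200 g ai/ha, with water (0×).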

[2] = tested on: Arabidopsis thaliana T1 plants; assay: Topramezone tolerance of transgenic Arabidopsis thaliana T1 plants (spray, bleached leaf area grade, damage score); details: Table 10; for Classification and statistics of the grade of pesticide damage Grade 0: number of plants at grade 0; for Classification and statistics of the grade of pesticide damage Grade 1: number of plants at grade 1; for Classification and statistics of the grade of pesticide damage Grade 2: number of plants at grade 2; for Classification and statistics of the grade of pesticide damage Grade 3: number of plants at grade 3; for Scores: pesticide damage score
Outline: as §1

[3] = tested on: Arabidopsis thaliana T1 plants; assay: Mesotrione tolerance of transgenic Arabidopsis thaliana T1 plants (spray, bleached leaf area grade, damage score); parameters: Scores: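 damage score 0-100 computed as Σ(N×S)/(T×M)×100 over grades 0-3 with higher meaning more damage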; details: Table 12; for Classification and statistics of the grade of pesticide damage Grade 0: number of plants at grade 0; for Classification and statistics of the grade of pesticide damage Grade 1: number of plants at grade 1; for Classification and statistics of the grade of pesticide damage Grade 2: number of plants at grade 2; for Classification and statistics of the grade of pesticide damage Grade 3: number of plants at grade 3; for Scores: pesticide damage score
Outline: as §1

Molecule	Resistance evaluation ([1]; isoxaflutole 140 g ai/ha (2×))	Classification and statistics of the grade of pesticide damage Grade 0 ([1]; isoxaflutole 140 g ai/ha (2×))	Classification and statistics of the grade of pesticide damage Grade 1 ([1]; isoxaflutole 140 g ai/ha (2×))	Classification and statistics of the grade of pesticide damage Grade 2 ([1]; isoxaflutole 140 g ai/ha (2×))	Classification and statistics of the grade of pesticide damage Grade 3 ([1]; isoxaflutole 140 g ai/ha (2×))	Scores ([1]; isoxaflutole 140 g ai/ha (2×))	Resistance evaluation ([1]; isoxaflutole 280 g ai/ha (4×))	Classification and statistics of the grade of pesticide damage Grade 0 ([1]; isoxaflutole 280 g ai/ha (4×))	Classification and statistics of the grade of pesticide damage Grade 1 ([1]; isoxaflutole 280 g ai/ha (4×))	Classification and statistics of the grade of pesticide damage Grade 2 ([1]; isoxaflutole 280 g ai/ha (4×))	Classification and statistics of the grade of pesticide damage Grade 3 ([1]; isoxaflutole 280 g ai/ha (4×))	Scores ([1]; isoxaflutole 280 g ai/ha (4×))	Resistance evaluation ([2]; topramezone 100 g ai/ha (4×))	Classification and statistics of the grade of pesticide damage Grade 0 ([2]; topramezone 100 g ai/ha (4×))	Classification and statistics of the grade of pesticide damage Grade 1 ([2]; topramezone 100 g ai/ha (4×))	Classification and statistics of the grade of pesticide damage Grade 2 ([2]; topramezone 100 g ai/ha (4×))	Classification and statistics of the grade of pesticide damage Grade 3 ([2]; topramezone 100 g ai/ha (4×))	Scores ([2]; topramezone 100 g ai/ha (4×))	Resistance evaluation ([2]; topramezone 200 g ai/ha (8×))	Classification and statistics of the grade of pesticide damage Grade 0 ([2]; topramezone 200 g ai/ha (8×))	further results
HPPDm-5-02: nucleotide sequence encoding Avena sativa HPPD with A111T+K351N+F372A+F383W; vector DBN11786 (nucleic acid, HPPDm-5-02 Nucleotide Sequence, vector DBN11786) DNA: ATGCCACCTACTCCAGCTACAGCTACTGGTGCTGCTGCTGCTGCCGTTACTCCTGAGCACGCTGCCAGGTCATTCCCCAGGGTGGTTCGCGTGAACCCCAGATCTGATAGGTTCCCAGTTCTGAGCTTCCACCATGTTGAGCTGTGGTGCGCTGATGCTGCTTCTGCTGCTGGCAGGTTCTCTTTCGCTCTTGGTGCTCCACTCGCTGCTAGATCTGATCTGTCTACAGGAAATAGCGCTCATGCCTCACTCCTGCTTCGCTCAGGTGCTTTGGCCTTCCTCTTCACCGCTCCATATGCTCCCCCACCTCAGGAGGCTGCTACTGCTGCTACTACAGCCTCCATTCCAAGCTTCTCAGCTGATGCCGCTAGAACCTTCGCTGCTGCTCATGGACTTGCCGTGAGGTCTGTTGGTGTTCGCGTGGCTGATGCTGCTGAGGCTTTCAGAGTTTCCGTTGCCGGCGGAGCTAGGCCAGCTTTCGCTCCTGCTGATTTGGGACATGGTTTCGGCCTGGCTGAGGTTGAGCTTTACGGTGACGTGGTTCTCCGCTTCGTGTCTTACCCAGATGAGACTGACCTGCCTTTCCTTCCCGGCTTCGAGAGAGTTTCCTCTCCTGGTGCCGTGGATTACGGCCTGACAAGGTTCGACCACGTGGTTGGAAACGTTCCCGAGATGGCTCCAGTGATCGATTACATGAAGGGCTTCCTTGGATTCCATGAGTTCGCCGAGTTCACTGCTGAGGACGTGGGAACCACTGAGTCCGGTTTGAACTCTGTGGTTCTCGCCAACAATTCTGAGGCTGTTTTGCTCCCTCTGAATGAGCCTGTGCATGGAACCAAGAGGAGAAGCCAGATTCAAACTTACCTGGAGTACCACGGTGGCCCTGGAGTTCAGCATATCGCCCTTGCTTCTAATGATGTGTTGCGCACACTCAGAGAGATGCGCGCCAGAACCCCCATGGGAGGTTTCGAGTTCATGGCCCCACCACAGGCTAAGTACTACGAGGGCGTTAGAAGGATTGCTGGAGACGTGTTGAGCGAGGAGCAGATCAATGAGTGCCAAGAGCTGGGTGTTCTTGTGGATAGGGATGACCAGGGCGTTCTGCTTCAAATTGCCACTAAGCCAGTGGGCGACCGCCCTACATTCTGGCTTGAGATGATTCAAAGAATCGGCTGCATGGAGAAGGATGAGGTTGGACAGGAGTACCAAAAGGGCGGATGCGGTGGCTTCGGAAAGGGTAACTTCAGCGAGTTGTTCAAGTCAATCGAGGACTACGAGAAGAGCCTCGAGGTGAAGCAGTCAGTGGTTGCCCAAAAGTCCTGA	Highly resistant	16	0	0	0	0	Highly resistant	14	1	1	0	6	Highly resistant	16	0	0	0	0	Highly resistant	16	Classification and statistics of the grade of pesticide damage Grade 1 ([2]; topramezone 200 g ai/ha (8×)): 0; Classification and statistics of the grade of pesticide damage Grade 2 ([2]; topramezone 200 g ai/ha (8×)): 0; Classification and statistics of the grade of pesticide damage Grade 3 ([2]; topramezone 200 g ai/ha (8×)): 0; Scores ([2]; topramezone 200 g ai/ha (8×)): 0; Resistance evaluation ([3]; mesotrione 210 g ai/ha (2×)): Highly resistant; Classification and statistics of the grade of pesticide damage Grade 0 ([3]; mesotrione 210 g ai/ha (2×)): 16; Classification and statistics of the grade of pesticide damage Grade 1 ([3]; mesotrione 210 g ai/ha (2×)): 0; Classification and statistics of the grade of pesticide damage Grade 2 ([3]; mesotrione 210 g ai/ha (2×)): 0; Classification and statistics of the grade of pesticide damage Grade 3 ([3]; mesotrione 210 g ai/ha (2×)): 0; Scores ([3]; mesotrione 210 g ai/ha (2×)): 0; Resistance evaluation ([3]; mesotrione 420 g ai/ha (4×)): Highly resistant; Classification and statistics of the grade of pesticide damage Grade 0 ([3]; mesotrione 420 g ai/ha (4×)): 16; Classification and statistics of the grade of pesticide damage Grade 1 ([3]; mesotrione 420 g ai/ha (4×)): 0; Classification and statistics of the grade of pesticide damage Grade 2 ([3]; mesotrione 420 g ai/ha (4×)): 0; Classification and statistics of the grade of pesticide damage Grade 3 ([3]; mesotrione 420 g ai/ha (4×)): 0; Scores ([3]; mesotrione 420 g ai/ha (4×)): 0
HPPDm-6-02: nucleotide sequence encoding Avena sativa HPPD with A106G+K351N+F372A+F383W; vector DBN11787 (nucleic acid, HPPDm-6-02 Nucleotide Sequence, vector DBN11787) DNA: ATGCCACCTACTCCAGCTACAGCTACTGGTGCTGCTGCTGCTGCCGTTACTCCTGAGCACGCTGCCAGGTCATTCCCCAGGGTGGTTCGCGTGAACCCCAGATCTGATAGGTTCCCAGTTCTGAGCTTCCACCATGTTGAGCTGTGGTGCGCTGATGCTGCTTCTGCTGCTGGCAGGTTCTCTTTCGCTCTTGGTGCTCCACTCGCTGCTAGATCTGATCTGTCTACAGGAAATAGCGCTCATGCCTCACTCCTGCTTCGCTCAGGTGCTTTGGCCTTCCTCTTCACCGCTCCATATGCTCCCCCACCTCAGGAGGGTGCTACTGCTGCTGCTACAGCCTCCATTCCAAGCTTCTCAGCTGATGCCGCTAGAACCTTCGCTGCTGCTCATGGACTTGCCGTGAGGTCTGTTGGTGTTCGCGTGGCTGATGCTGCTGAGGCTTTCAGAGTTTCCGTTGCCGGCGGAGCTAGGCCAGCTTTCGCTCCTGCTGATTTGGGACATGGTTTCGGCCTGGCTGAGGTTGAGCTTTACGGTGACGTGGTTCTCCGCTTCGTGTCTTACCCAGATGAGACTGACCTGCCTTTCCTTCCCGGCTTCGAGAGAGTTTCCTCTCCTGGTGCCGTGGATTACGGCCTGACAAGGTTCGACCACGTGGTTGGAAACGTTCCCGAGATGGCTCCAGTGATCGATTACATGAAGGGCTTCCTTGGATTCCATGAGTTCGCCGAGTTCACTGCTGAGGACGTGGGAACCACTGAGTCCGGTTTGAACTCTGTGGTTCTCGCCAACAATTCTGAGGCTGTTTTGCTCCCTCTGAATGAGCCTGTGCATGGAACCAAGAGGAGAAGCCAGATTCAAACTTACCTGGAGTACCACGGTGGCCCTGGAGTTCAGCATATCGCCCTTGCTTCTAATGATGTGTTGCGCACACTCAGAGAGATGCGCGCCAGAACCCCCATGGGAGGTTTCGAGTTCATGGCCCCACCACAGGCTAAGTACTACGAGGGCGTTAGAAGGATTGCTGGAGACGTGTTGAGCGAGGAGCAGATCAATGAGTGCCAAGAGCTGGGTGTTCTTGTGGATAGGGATGACCAGGGCGTTCTGCTTCAAATTGCCACTAAGCCAGTGGGCGACCGCCCTACATTCTGGCTTGAGATGATTCAAAGAATCGGCTGCATGGAGAAGGATGAGGTTGGACAGGAGTACCAAAAGGGCGGATGCGGTGGCTTCGGAAAGGGTAACTTCAGCGAGTTGTTCAAGTCAATCGAGGACTACGAGAAGAGCCTCGAGGTGAAGCAGTCAGTGGTTGCCCAAAAGTCCTGA	Highly resistant	16	0	0	0	0	Highly resistant	13	3	0	0	6	Highly resistant	16	0	0	0	0	Highly resistant	16	Classification and statistics of the grade of pesticide damage Grade 1 ([2]; topramezone 200 g ai/ha (8×)): 0; Classification and statistics of the grade of pesticide damage Grade 2 ([2]; topramezone 200 g ai/ha (8×)): 0; Classification and statistics of the grade of pesticide damage Grade 3 ([2]; topramezone 200 g ai/ha (8×)): 0; Scores ([2]; topramezone 200 g ai/ha (8×)): 0; Resistance evaluation ([3]; mesotrione 210 g ai/ha (2×)): Highly resistant; Classification and statistics of the grade of pesticide damage Grade 0 ([3]; mesotrione 210 g ai/ha (2×)): 16; Classification and statistics of the grade of pesticide damage Grade 1 ([3]; mesotrione 210 g ai/ha (2×)): 0; Classification and statistics of the grade of pesticide damage Grade 2 ([3]; mesotrione 210 g ai/ha (2×)): 0; Classification and statistics of the grade of pesticide damage Grade 3 ([3]; mesotrione 210 g ai/ha (2×)): 0; Scores ([3]; mesotrione 210 g ai/ha (2×)): 0; Resistance evaluation ([3]; mesotrione 420 g ai/ha (4×)): Highly resistant; Classification and statistics of the grade of pesticide damage Grade 0 ([3]; mesotrione 420 g ai/ha (4×)): 16; Classification and statistics of the grade of pesticide damage Grade 1 ([3]; mesotrione 420 g ai/ha (4×)): 0; Classification and statistics of the grade of pesticide damage Grade 2 ([3]; mesotrione 420 g ai/ha (4×)): 0; Classification and statistics of the grade of pesticide damage Grade 3 ([3]; mesotrione 420 g ai/ha (4×)): 0; Scores ([3]; mesotrione 420 g ai/ha (4×)): 0
